Assay results taken from a protein production outcome set (Wang et al. 2014).

Test: label from the status in PepcDB records
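Note: failed if final PepcDB status was selected cloned or expressed and not failed if soluble or beyond.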

| Sequence | protein production |
| --- | --- |
| MGHHHHHHSHMATSRYEPVAEIGVGAYGTVYKARDPHSGHFVALKSVRVPNGGGGGGGLPISTVREVALLRRLEAFEHPNVVRLMDVCATSRTDREIKVTLVFEHVDQDLRTYLDKAPPPGLPAETIKDLMRQFLRGLDFLHANCIVHRDLKPENILVTSGGTVKLADFGLARIYSYQMALTPVVVTLWYRAPEVLLQSTYATPVDMWSVGCIFAEMFRRKPLFCGNSEADQLGKIFDLIGLPPEDDWPRDVSLPRGAFPPRGPRPVQSVVPEMEESGAQLLLEMLTFNPHKRISAFRALQHSYLHK | failed |
| MGHHHHHHSHMEFIVDSVDKTMHIGRQLGSLVNKGDILCLTGDLGTGKTHISKGIAEGLGIDEHITSPTFNIVNEYHSGRLTLYHFDVYRVNDPDEIEAIGFDEYIFGDGVSLIEWANYIEELIPEEYIHIKIEKLPDMGENFRKITINGYGDRYNYIKEIKE | failed |
| MGHHHHHHSHMFASCHCVPRGRRTMKMIHFRSSSVKSLSQEMRCTIRLLDDSEISCHIQRETKGQFLIDHICNYYSLLEKDYFGIRYVDPEKQRHWLEPNKSIFKQMKTHPPY | failed |
| MGHHHHHHSHMGWDLTVKMLAGNEFQVSLSSSMSVSELKAQITQKIGVHAFQQRLAVHPSGVALQDRVPLASQGLGPGSTVLLVVDKSDEPLS | failed |
| MGHHHHHHSHMLPVELVRHDVKKTDETSQVELMLQVDPDLFWFNGHFTGQPLLPGVAQLDWVMHYATTVLAQGWTFLSIENIKFQQPILPGKTLRLVLIWHAGKQSLTFSYSILEGDTERTASSGKIKLTPIMEDNPCQ | not failed |
| MGHHHHHHSHMPQFSPSYSFPVQIYYEDTDFSGVVYHPNFLKYFERAREHVIGAEQLRNLWQQQQLGFAVYRSDMLCHEGVEFADIIDIRTKFYFESKYRTVWHQEIWRPNGKKPAVTATIEMVCMNQARQLAPMPAELITQLSLGM | not failed |
| MGHHHHHHSHMSNAEDIRDLVVTFLEGLRKRSKYVVALQDNPNPAGEESGFLSFAKGDLIILDHDTGEQVMNSGWANGINERTKQRGDFPTDCVYVMPTVTMPPREIVA | failed |
| MGHHHHHHSHMSPFLRIGLSNFDCGSCQSCQGEAVNPYCAVLVKEYVESENGQMYIQKKPTMYPPWDSTFDAHINKGRVMQIIVKGKNVDLISETTVELYSLAERCRKNNGKTEIWLELKPQGRMLMNARYFLEMSDTK | not failed |
| MGHHHHHHSHMTCGAWEMKERLGTGGFGNVIRWHNQETGEQIAIKQCRQELSPRNRERWCLEIQIMRRLTHPNVVAARDVPEGMQNLAPNDLPLLAMEYCQGGDLRKYLNQFENCCGLREGAILTLLSDIASALRYLHENRIIHRD | failed |
| MGHHHHHHSHNQEHQLGNNTLSSHLQIDKMTDNKTGEVLISENVVASIQPAEGSFEGDLKVPRMEEKEALVPIQKATDSFHTELHPRVAFWIIKLPRRRSHQDALE | failed |
| MGHHHHHHSHSGNIRLETAAETQAFAEELGRHLEAGDVIILDGPLGAGKTTFTQGLARGLNVKGRVTSPTFVIAREHKSLSGGPSLVHVDAYRLIDDAAGATDPIGALDSLDLETELEDAVVVAEWGGGLVEQITDSYLLITFDRT | not failed |
| MGHHHHHHSHSLDSQKGQLVRGKVCEYSTDGAYIDIGGKAPAFLPKREAALHAVLDLEAHLPKDEELEFLVIRDQNEDGQVTVSLRALALEQAWTRVAELQEG | not failed |
| MGHHKAMPYADVAAFIIELRKREAVAATALEFTILTAARSGETLGAKWHEIDWKDKIWTVPAERMKAAREHRVPLSSRTITILKKLAEFGSDENSFVFPGQKPGKPLSVMAMDMVLRRMEVDVTVHGFRSSFRDWCGEVSNFPRDVAEAALAHLEHHHHHH | not failed |
| MGIFETMSQVRRLPQALAAAVATPPALAGSGTLRGLIGLDDSLGEAVTTRAEALTIPAVLRARNLLSTTVARTPLVCDGTLPPFVPVAAPPGAATMQTPFHRMLATADDLLFNGVACWALDRDESGTCIGAIHIPLDTWQIEENTVRVNGKAVDPMEVCIFVGIHGGLLTHASETFTDARNLVRAAARVAQNPAALIELRQTNNAQLSPDDVDRIINGYVAARRGRNSGVGFSSSGLEVHEHEMAKENLLIEGRNAAAVDVARAMNVPAAFIDATVGGTSLSYQNAASRMIELVTFGVEPLMSAIEARLNQPDMHADHLANPLKFDPAALLDAIPTTPTIGAQPHGENS | not failed |
| MGIHKPKFYAVRAGRDKGVFSSWEECRKAIYGFSGAVYRSFPTLEEAQAWFKGETLSDPLKAEDDSLRDDRTEYDVYTDGSYVNGQYAWAYAFVKDGKVHYEDADVGKNPAAATMRNVAGEIAAALYAVKKASQLGVKIRILHDYAGIAFWATGEWKAKNEFTQAYAKLMNQYRGIYSFEKVKAHSGNEFNDYVDMKAKSALGIRDLEHHHHHH | failed |
| MGIHLFWDSRVPVGLSRPVSEELSAVLEMPVSRIDDGIFPLEGFDPVRNQYDAVKVLLKLDMFRRRMPQIFKPADMDLEFYNKFNHLHEKILLVTPGDLYEPLADFVFGLAYPKLGVAIVSPHRLQNEFYGKYADDSALIDRIVKEGAHEIGHLFGLGHCDNPGCIMYCPRNLDELDRKRKYFCGKCRVQLNGDTLEDDLFSLEHHHHHH | not failed |
| MGIIAWIVFGFVIGLIARAVVPGKQSLGFVMTTLLGIAGSLIGGLVASAFAGTSGTTFQTAGFIGSLVGAIVLLVIAGMVTTPRRRTV | failed |
| MGIMPRKVLAIKNFKERFDLLPKLKGVIAEKQPDILVVVGNILKNEALEKEYERAHLARREPNRKVIHENEHYIIETLDKFFREIGELGVKTFVVPGKNDAPLKIFLRAAYEAETAYPNIRVLHEGFAGWRGEFEVIGFGGLLTEHEFEEDFVLKYPRWYVEYILKFVNELKPRRLVTIFYTPPIGEFVDRTPEDPKHHGSAVVNTIIKSLNPEVAIVGHVGKGHELVGNTIVVNPGEFEEGRYAFLDLTQHKIKLEQFS | not failed |
| MGIRHIALFRWNDTVTPDQVEQVITALSKLPAAIPELKNYAFGADLGLAAGNYDFAVVADLDGEDGFRAYQDHPDHRAALAIIAPMLADRVAVQFAL | not failed |
| MGIRVKRRQHQHLLESLVHSTAKQQGDFTKTAELATELLCQNLAVSLVSIWIFSADQGTQSLVAQFGSMALQDTYRPSLLHTVPRYLNELKNYRHIDAGNTLIDPRLTELVDSYFIPRQILSSLDVGIRINGHLEGVLCIERAQVTHHWHDSEIHLACQMADQLALTLATKHAYDKEERLSLFRCAIEQSRQMSMLEHHHHHH | not failed |
| MGKEITENIIDVEFKCNHFKMNGYIGNNNIYRSNKNLQHIYINKRFVKSKIIIDAITESYKSIIPIGKHAVCFLNIEVDPSCIDVNIHPNKLEIKFEKEQEVYIELRDFLKVKLIHSNLIGLEHHHHHH | failed |
| MGKENLYVVLPSYNEEANIGKLINEWNVQFKDLEARGIKLEIIIVNDGSTDNTLAVAEAFSKHNDNVVVIDHGVNKGLGEGLNTGINYVLSQKQKGYMCLMDGDMTHEPKYIFSMLDKLQEEKLDCVIASRYRRGAKVEGLSLFRKFLSFGARVLYTIRLGIPNVRDYTCGYRLYKTSVLEKLHKVYGKRIVKETGFACMMELIVKVSKENFKIGEVPFVLKYQLKGGESKMKVGKTIKRSLLLLRVYKLEHHHHHH | not failed |
| MGKIFCIVQARMGSERLQGKVIKPILKKPMVIYTLDRLKKSKYIDKIVLATSSMERETPLVESCEEYGYDVFKGSEANVLKRYEQAAEKYGANIEDAVIRVTGDCPLIDPIIVDNVVTKFLSSDYDYVRLDVPNTFVRGFDVEIFSMKALKTVNSLINGGKIPKEEADMYKEHVTLYMYKHPNEFKVGYVKGDEFYSKDYRLCVDTKEDFELVKNIYEHFNDEFVSSKNVINYLDRNSEIAQINNDIKQKEVLEHHHHHH | not failed |
| MGKKNPNARHTDAATPLTTDDSNSSSVSRRESATESKSASESESSPPRSNTKQSRTHKNVKASGKATVSSSSDSDQAVANSSANDEEKEPVCKIRIVPLEKLLASPKTKERPSRGSQQKNVTINDSSDEEPLKGSKLVLPARKSRNKNAS | failed |
